Test results: patent publication US20240294650A1 (Alector, published 2024)
Positions count from the first letter of the chain named.

B1: MTK-229 (antibody, human IgG1, V domains shown)
VH: QVQLQQSGPELVKPGASVKISCKASGYEFSRSWMNWVKQRPGKGLEWIGRIYPGDGDTNYKGKLKGQATLTADKSSSTAYMQLSSLTFEDSAVYFCARGGGYYYDSRYEGFVYWGQGTVVTVSA
VL: QIVLTQSPAIMSASPGEEVTMTCSASSSVSYMHWYQQKSGTSPKRWIYDTSKLASGVSGRFSGSGSGTSYSLTISSMEAEDAATYYCQQWSSNPPITFGAGTKLELK
B2: MTK-213 (antibody, human IgG1, V domains shown)
VH: QVQLQQPGAELVKPGASVKMSCKASGYTFTSYWITWVKQRPGQGHEWIGEIYPGIGSTNYNEKFKSKATLTVDTSSRTAYMQLSSLTSEDSAVYFCARGAYTKYYFDYWGQGTTLTVSS
VL: DIVMTQSHKFMSTSVGDRVSITCKASQDVGDAVAWYQQKPGQTPKLLIYWASTRHTGVPDRFTGSGSGTDFTLTISNVQSEDLADYFCQQYSSYLMYTFGGGTKLEIK
B3: MTK-220 (antibody, V domains shown)
VH: EVQLVESGGGLVKPGGSLKLSCAASGFTFSDYGMHWVRQAPEKGLEWVAFISGGSGTIYYEDTVKGRFTISRDNAKNTLFLQMTSLRSEDTAMYYCTRGGNYFDYWGQGTTLTVSS
VL: NIMLTQSPSSLAVSAGEKVTMTCKSSQSVLYSSNQKNYLAWYQQKPGQSPKLLIYWASTRESGVPDRFTGSGSGTDFTLTISNVQAEDLAVYYCHQYFSSWTFGGGTKLEIK
B4: MTK-219 (antibody, human IgG1, V domains shown)
VH: QVQLQQSGADLMKPGASVKLSCKATGNTFTGYWIEWVKQRPGHGLEWIGEILTGSGSTNYNERFKGKATFTADTSSNTAYMQLSSLTTEDSAIYYCAGSYFTNSWFPYWGQGSLVTVSA
VL: DIVLTQSPASLAVSLGQRATISCRASESVDSYGNSFMHWYQQKPGQPPKLLIYRAYTLESGIPARFSGSGSRTDFTLTINPVEADDVATYYCQQSNEDPRTFGGGTKLEIK
B5: MTK-222 (antibody, human IgG1, V domains shown)
VH: B4 VH with N27Y, T58S, R63K, T74S, Y80F, F101Y, T102S
VL: B4 VL with A9V, N34S, Y56S, T57S, A84T
B6: MTK-210 (antibody, human IgG1, V domains shown)
VH: QVQLQQSGPELVKPGASVKISCKASDYEFSRSWMNWVKQRPGKGLEWIGRIYPGDGDTNYNGKFKGKATLTADKSSNTAYMQLNSLTSEDSAVYFCARKGGYYYSISNYFDYWGQGTTLTVSS
VL: QIVLTQSPAIMSASPGVKVTMTCSASSSVSYMHWYQQKPGSSPRLLIYDTSNLASGVPVRFSGSGSGTSYSLTISRMEAEDAATYYCQQWSSYPPYTFGGGTKLEIK
B7: MTK-212 (antibody, human IgG1, V domains shown)
VH: QVQLQQSGPELVKPGASVKISCKASGYAFSSSWVNWVKQRPGKGLEWIGRIYPGDGDSNYNGNFKGKATLTADKSSNTAYLQLSSLTSEDSAVYFCARKSHFIYYTLDYWGQGTPVTVSS
VL: DIVMTQSHKFKSTSVGDRVSIACKASQDVGTSVAWYQQKPGKSPKLLIYWASSRHTGVPDRFTGSGSGTDFTLTISNVQSEDLTDYFCQQYSTYPYTFGGGTKLEIK
B8: MTK-206 (antibody, human IgG1, V domains shown)
VH: QVQLQQSGAELARPGASVKMSCKASGYTFTSYTMHWVKQRPGQGLEWIGYINPSSGYIKNSQKFKDKATLTADKSSSTAYMQLSSLTSEDSAVYYCARTVYGYYGSSPDYWGQGTTLTVSS
VL: DIQMTQSPSSLSASLGERVSLTCRASQDIGSNLNWLQQEPDGTIKRLIYATSSLESGVPKRFSGSRSGSDYSLTISSLESEDFVDYYCLQYDSSPWTFGGGTKLEIK
B9: MTK-202 (antibody, human IgG1, V domains shown)
VH: EVQLVESGGGLVKPGGSLKLSCAASGFTFSDFGMHWVRQVPEKGLEWVAFISGGSNTIYYTDTVKGRFTISRDNAKNTLFLQMTSLRSEDTAMYYCVRNGNSFAYWGQGTLVTVSA
VL: B3 VL with L4M, T22N, V84I, V91I, S99F
B10: MTK-204 (antibody, human IgG1, V domains shown)
VH: B3 VH with F50Y, G53S, S55T, G56S, T97A, N101L, Y102L
VL: B3 VL with L4M, T22S, Y55Q, G74E, S82R, N83S
B11: MTK-231 (antibody, human IgG1, V domains shown)
VH: DVQLQESGPGLVKPSQSLSLTCSVTGYSITSGYYWNWIRQFPGNKLEWMGYISYDGTYNYHPSLKNRISITRDTSKNQFFLTLNSVTTEDTATFYCTRGGGYWGQGTSVTVSS
VL: DVVMTQTPLSLPVSLGDQASISCRSSQSLVHSDGNTYLHWYLQKPGQSPKLLIYKVSNRFSGVPDRFSGSGSGTDFTLKISRLEAEDLGIYFCSQTTHIPLTFGSGTKLEIK
B12: MTK-225 (antibody, human IgG1, V domains shown)
VH: EVQLQQSGPELVKPGASVKIFCKASGYTFTAYNMDWVKQSHGKSLEWIGDINPNNGGTIYNQKFKGKATLTVDKSSSTAYMELRSLTSEDTAVYYCARRRRYGNTYYWYFDVWGTGTTVTVSS
VL: DIQMTQSPASLSVSVGETVTITCRASENIYSSLAWYQQKQGKSPQLLVYAATNLADGVPSRFSGSGSGTQFYLKINGLQSEDFGSYYCQHFWGTSYTFGGGTKLEIK
B13: MTK-221 (antibody, human IgG1, V domains shown)
VH: QVTLKESGPGMLQSSQTLSLTCSFSGFSLSTSGMGVSWIRQPSGKGLEWLAHIYWDDDKRYNTSLQSRLTISKDTSRNQVFLKITSVDTADTATYFCGRLGAYSAFPYYFDYWGQGTTLTVSS
VL: DIQMTQSPSSLSASLGGKVTITCKASQDIHKHIAWYQHKPGKGPRLLIHYTSTLQPGIPSRFSGSGSGRDYSFSISNLEPEDLATYYCLQYDNLWTFGGGTKLEIK

The binders below were run against T1, human MerTK (human, UniProt Q12866 21-999) (assay: cell-based or functional assay).
T1 sequence: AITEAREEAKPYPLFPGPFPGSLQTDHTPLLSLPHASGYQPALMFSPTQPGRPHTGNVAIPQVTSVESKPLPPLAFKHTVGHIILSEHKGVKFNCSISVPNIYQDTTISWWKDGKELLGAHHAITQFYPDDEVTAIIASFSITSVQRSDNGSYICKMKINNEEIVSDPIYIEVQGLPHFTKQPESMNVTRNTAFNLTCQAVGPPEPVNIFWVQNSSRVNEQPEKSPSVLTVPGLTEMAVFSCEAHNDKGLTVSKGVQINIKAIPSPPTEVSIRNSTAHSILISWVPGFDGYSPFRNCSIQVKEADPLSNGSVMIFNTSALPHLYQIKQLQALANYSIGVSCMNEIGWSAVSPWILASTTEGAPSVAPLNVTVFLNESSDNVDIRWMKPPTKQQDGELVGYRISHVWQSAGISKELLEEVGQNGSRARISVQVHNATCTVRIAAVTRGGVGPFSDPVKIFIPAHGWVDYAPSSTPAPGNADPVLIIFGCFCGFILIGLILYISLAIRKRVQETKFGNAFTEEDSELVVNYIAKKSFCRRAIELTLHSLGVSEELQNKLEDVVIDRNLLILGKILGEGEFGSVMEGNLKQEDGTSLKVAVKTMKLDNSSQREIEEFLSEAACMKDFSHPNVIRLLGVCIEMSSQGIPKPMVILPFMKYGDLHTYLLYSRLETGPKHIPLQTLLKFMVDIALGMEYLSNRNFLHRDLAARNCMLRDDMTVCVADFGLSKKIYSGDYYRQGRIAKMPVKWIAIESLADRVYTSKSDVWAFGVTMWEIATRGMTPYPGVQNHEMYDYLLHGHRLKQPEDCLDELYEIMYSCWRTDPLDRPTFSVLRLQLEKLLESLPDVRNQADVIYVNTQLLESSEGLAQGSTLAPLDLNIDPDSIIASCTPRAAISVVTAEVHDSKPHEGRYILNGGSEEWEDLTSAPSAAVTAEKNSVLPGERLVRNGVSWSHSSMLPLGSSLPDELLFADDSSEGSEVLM

Question: Which “EC50 (nM), pAKT in SK-MEL-5 cells” value does the source give for B1 here?
Answer: 1.89 nM

Question: And the “Fold increase in PAKT over IgG control” value?
Answer: 4.1 fold

Question: How did the “Fold increase in PAKT over IgG control” value turn out when B2 was run?
Answer: 3.7 fold

Question: Which “Fold increase in PAKT over IgG control” value does the source give for B3 here?
Answer: 3.6 fold

Question: How did the “Fold increase in PAKT over IgG control” value turn out when B4 was run?
Answer: 3.5 fold

Question: For B5, which “Fold increase in PAKT over IgG control” value is on record?
Answer: 4.6 fold

Question: Which results are given for B6?
Answer: EC50 (nM), pAKT in SK-MEL-5 cells: 15 nM; Fold increase in PAKT over IgG control: 3.3 fold

Question: For B7, which “EC50 (nM), pAKT in SK-MEL-5 cells” value is on record?
Answer: 96.9 nM

Question: And the “Fold increase in PAKT over IgG control” value?
Answer: 3.3 fold

Question: B8 was tested. Which “Fold increase in PAKT over IgG control” value did it give?
Answer: 3.1 fold

Question: With B9 as the binder, how does the “EC50 (nM), pAKT in SK-MEL-5 cells” value read?
Answer: 1.01 nM

Question: What about the “Fold increase in PAKT over IgG control” value of the same binder?
Answer: 3 fold

Question: Which “Fold increase in PAKT over IgG control” value does the source give for B10 here?
Answer: 3 fold

Question: With B11 as the binder, how does the “EC50 (nM), pAKT in SK-MEL-5 cells” value read?
Answer: 0.65 nM

Question: What about the “Fold increase in PAKT over IgG control” value of the same binder?
Answer: 3 fold

Question: With B12 as the binder, how does the “Fold increase in PAKT over IgG control” value read?
Answer: 4.5 fold

Question: How did the “Fold increase in PAKT over IgG control” value turn out when B13 was run?
Answer: 4.4 fold

What follows are binders tested against T2, Full Axl (ECD domain of human Axl) (human, UniProt P30530 26-451) (assay: SPR (data not shown)).
T2 construct: also called human Axl ECD
T2 sequence: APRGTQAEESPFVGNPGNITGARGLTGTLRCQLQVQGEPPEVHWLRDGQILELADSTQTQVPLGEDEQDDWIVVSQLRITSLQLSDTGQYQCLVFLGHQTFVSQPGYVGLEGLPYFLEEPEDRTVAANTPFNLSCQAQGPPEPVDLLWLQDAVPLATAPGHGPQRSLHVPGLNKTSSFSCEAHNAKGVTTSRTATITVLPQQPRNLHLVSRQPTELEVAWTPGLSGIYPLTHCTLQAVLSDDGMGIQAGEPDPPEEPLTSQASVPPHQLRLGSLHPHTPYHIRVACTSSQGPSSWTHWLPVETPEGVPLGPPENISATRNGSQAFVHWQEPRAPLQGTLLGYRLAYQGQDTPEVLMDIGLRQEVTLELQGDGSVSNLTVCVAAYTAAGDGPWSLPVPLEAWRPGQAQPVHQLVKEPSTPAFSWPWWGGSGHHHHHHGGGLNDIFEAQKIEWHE
Protocol: Binding of anti-MerTK antibodies of the present disclosure to these domain-swapped chimera or deletion mutants was tested by Surface Plasmon Resonance (SPR) using Carterra LSA. Purified anti-MerTK antibodies were immobilized in duplicate on a HC30M chip (Carterra) by amine coupling, following the manufacturer's instructions (described previously).
Supernatants containing the constructs were diluted 1:1 with running buffer containing 0.5 mg/mL BSA (HBS-TE, Carterra; BSA, Sigma) and injected over the immobilized antibodies. The surface was regenerated with 10 mM Glycine pH2.0 after each construct injection. Sensorgrams were analyzed using Carterra Epitope software to identify patterns of construct binding. Loss of binding to MerTK constructs with domains deleted or swapped in from Axl and/or gain of binding to Axl constructs with MerTK domains swapped in were evaluated. Data from these studies were used to construct a domain binding map for anti-MerTK antibodies and their binding to various domains of human MerTK.

Question: Does B1 bind?
Answer: no binding

Question: Does B2 bind?
Answer: no binding

Question: Does B3 bind?
Answer: no binding

Question: Does B4 bind?
Answer: no binding

Question: Does B5 bind?
Answer: no binding

Question: Does B6 bind?
Answer: no binding

Question: Does B7 bind?
Answer: no binding

Question: Does B8 bind?
Answer: no binding

Question: Does B9 bind?
Answer: no binding

Question: Does B10 bind?
Answer: no binding

Question: Does B11 bind?
Answer: no binding

Question: Does B12 bind?
Answer: no binding

Question: Does B13 bind?
Answer: no binding
